Bridges are numbered along the chain shown (N, C = ends). Where no end group is shown, it is not given here. [ ]: non-standard residue; d: D form. S5 = C=CCCC[C@](C)(N)C(=O)O

Test [1] concerns the target T1, LBD fragment of human Nur77 (residues 351–598) (human, UniProt P22736 351-598).
T1 construct: Labelled with a fluorescent dye for MST; amine-coupled to the chip for SPR; also called Nur77 LBD; Nur77-LBD; source: E. coli BL21(DE3), purified (Ni-NTA, Superdex 200 gel filtration)
Put plainly: MST. Particulars: both partners purified.

Test [2] has as its target T1, LBD fragment of human Nur77 (residues …). Kind of test: SPR. Particulars: both partners purified.
For test [3], the target named is T2, SmallBit-Nur77 (luciferase SmallBit fusion of Nur77) (UniProt P22736 1-598).
T2 construct: Nur77; source: HEK293T, transiently transfected, in living cells
T2 sequence (P22736 whole entry, the tested form may be a part): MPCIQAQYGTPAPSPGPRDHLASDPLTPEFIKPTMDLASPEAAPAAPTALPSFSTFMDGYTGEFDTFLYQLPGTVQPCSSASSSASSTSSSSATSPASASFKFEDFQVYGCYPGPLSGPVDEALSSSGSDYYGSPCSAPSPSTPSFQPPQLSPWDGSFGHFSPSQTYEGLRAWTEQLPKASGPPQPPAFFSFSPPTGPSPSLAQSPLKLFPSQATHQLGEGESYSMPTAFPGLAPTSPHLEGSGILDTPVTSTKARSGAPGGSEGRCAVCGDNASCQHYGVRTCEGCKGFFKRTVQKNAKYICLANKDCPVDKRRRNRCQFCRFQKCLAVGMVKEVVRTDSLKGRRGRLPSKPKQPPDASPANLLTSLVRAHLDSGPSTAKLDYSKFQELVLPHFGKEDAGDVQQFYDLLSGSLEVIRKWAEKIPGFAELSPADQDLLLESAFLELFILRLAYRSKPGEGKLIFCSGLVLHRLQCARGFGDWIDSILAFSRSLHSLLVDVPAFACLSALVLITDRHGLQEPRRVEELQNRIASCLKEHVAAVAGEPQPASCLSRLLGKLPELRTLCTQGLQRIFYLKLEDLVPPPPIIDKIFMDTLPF
Put plainly: split reporter (BiFC, NanoBiT). Particulars: one partner purified.

Test [4] has as its target T1, LBD fragment of human Nur77 (residues …). Kind of test: MST; purified Nur77 LBD labelled with fluorescent dye; peptides 0.1-100 × 10^-6 M; PBST (0.05% Tween-20); 20 min at room temperature; Dianthus (NanoTemper). Particulars: both partners purified.

T1 sequence (P22736 351-598): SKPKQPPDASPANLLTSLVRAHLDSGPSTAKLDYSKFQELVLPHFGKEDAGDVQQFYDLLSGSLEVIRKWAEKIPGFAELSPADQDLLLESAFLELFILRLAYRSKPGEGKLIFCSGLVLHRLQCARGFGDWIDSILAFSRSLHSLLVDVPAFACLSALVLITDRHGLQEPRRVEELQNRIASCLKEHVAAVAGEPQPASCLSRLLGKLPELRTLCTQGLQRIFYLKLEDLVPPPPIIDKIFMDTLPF

B1: ST-CY14 (stapled T-CY14) (peptide)
chain: H-CEGCKGF[S5]RRT[S5]RYYGRKKRRQRRR-NH2
modifications: staple 8-12; cysteine pairing not given here
Regarding B1, the Kd in test [1] came out at 0.668 µM; in test [2], 0.0325 µM. Moreover, in test [3], it took 3.15 µM to reach a half-maximal effect (EC50).

B2: S-CY14 (stapled CY14) (peptide)
chain: CEGCKGF[S5]RRT[S5]RY-NH2
modifications: staple 8-12; cysteine pairing not given here
B2 displayed a Kd in test [4] of 3.96 µM.

B3: T-CY14 (CY14 with the TAT sequence conjugated to its C-terminus) (peptide)
chain: CEGCKGFFRRTIRYRKKRRQRRR-NH2
modifications: cysteine pairing not given here
In test [1], B3 displayed a dissociation constant Kd of 4.18 µM.

B4: SV16, α-helix of PPARγ (residues Ser186-Val201) (peptide, UniProt P37231 186-201, looked up)
peptide: SRNKCQYCRFQKCLAV-NH2
modifications: cysteine pairing not given here
notes: PPARγ, residues Ser186-Val201 of the DBD; Made on Rink amide resin, so probably a C-terminal amide; source: synthetic peptide (Fmoc SPPS on Rink Amide MBHA resin)
In test [4], B4 showed a Kd of 156 µM.

B5: CY14 (CL14 with Leu169 mutated to Tyr) (peptide, UniProt P37231 156-169, looked up)
peptide: CEGCKGFFRRTIRY-NH2
modifications: cysteine pairing not given here
notes: PPARγ, residues Cys156-Leu169, with Leu169 mutated to Tyr; source: synthetic peptide (Fmoc SPPS on Rink Amide MBHA resin)
In the case of B5, binding in test [4] was characterised by a dissociation constant (Kd) of 8.7 µM.

B6: CF14 (CL14 with Leu169 mutated to Phe) (peptide, UniProt P37231 156-169, looked up)
peptide: CEGCKGFFRRTIRF
notes: PPARγ, residues Cys156-Leu169, with Leu169 mutated to Phe; source: synthetic peptide (Fmoc SPPS on Rink Amide MBHA resin)
In the case of B6, the binding result in test [4] is given as “binds”.

B7: CL14, α-helix of PPARγ (residues Cys156-Leu169) (peptide, UniProt P37231 156-169, looked up)
peptide: CEGCKGFFRRTIRL-NH2
modifications: cysteine pairing not given here
notes: PPARγ, residues Cys156-Leu169 of the DBD; Made on Rink amide resin, so probably a C-terminal amide; source: synthetic peptide (Fmoc SPPS on Rink Amide MBHA resin)
In test [4], B7 displayed a Kd of 27.2 µM.

B8: CH14 (CL14 with Leu169 mutated to His) (peptide, UniProt P37231 156-169, looked up)
peptide: CEGCKGFFRRTIRH
notes: PPARγ, residues Cys156-Leu169, with Leu169 mutated to His; source: synthetic peptide (Fmoc SPPS on Rink Amide MBHA resin)
B8: in test [4], the binding result is “binds”.

B9: CW14 (CL14 with Leu169 mutated to Trp) (peptide, UniProt P37231 156-169, looked up)
peptide: CEGCKGFFRRTIRW
notes: PPARγ, residues Cys156-Leu169, with Leu169 mutated to Trp; source: synthetic peptide (Fmoc SPPS on Rink Amide MBHA resin)
Take B9: the binding result in test [4] was “binds”.
